Experimental data from publication PMC6113430.

What was measured:
[1] = molecular target: human PD‐L1 (hPD‐L1), soluble, biotinylated (human) (UniProt Q9NZQ7); assay: SPR
[2] = molecular target: human PD‐L2 (hPD‐L2), soluble (human) (UniProt Q9BQ51); assay: SPR
[3] = molecular target: human PD‐L2 on mature dendritic cells (human) (UniProt Q9BQ51); assay: flow cytometry on cells
[4] = molecular target: human PD‐L1 on the surface of tumor cells (human) (UniProt Q9NZQ7); assay: flow cytometry on cells

With “L4C11, PD‐1 variant with a single‐site mutation from glycine to valine (G124V) (designed binder)” the Kd [1] was 93.7 nM, the T1/2 [1] was 8.25 s and the koff [1] was 0.121 s⁻¹.
In the case of “L5B7, high‐affinity PD‐1 variant (G124S, K131Y, A132I) (designed binder)”, the Kd [2] is reported as 13.7 nM, the T1/2 [2] is reported as 78.1 s and the koff [2] is reported as 0.0128 s⁻¹. The Kd [1] was 0.687 nM, the koff [1] was 0.002 s⁻¹ and the percent reduction of the MFI of anti-PD-L2 Ab (M1H18) at 1.0 × 10^-5 mol/L L5B7 [3] was greater than 40%. It also gave an EC50 [4] of 2.9 nM.
With “hPD‐1 A132I point mutant (domain or fragment)” the Kd [1] was 9.9 nM.
“hPD‐1 with the combined mutation of G124V and A132I (domain or fragment)” gave a Kd [1] of 0.97 nM.
Work on “soluble human PD‐1 (hPD‐1) (domain or fragment)” yielded a Kd [2] of 1050 nM, a T1/2 [2] of 2.68 s and a Kd [1] of 2650 nM. The EC50 [4] was 4860 nM.
